# Experimental data: patent publication US20160046944, “APTAMER TO IL-17 AND USE THEREOF” (THE UNIVERSITY OF TOKYO, published 2016)
# Residue numbers refer to the chain shown, from its start.
# T1: IL-17 (IL-17A) (Homo sapiens, UniProt Q16552 Q16552:24-155)
# T1 sequence: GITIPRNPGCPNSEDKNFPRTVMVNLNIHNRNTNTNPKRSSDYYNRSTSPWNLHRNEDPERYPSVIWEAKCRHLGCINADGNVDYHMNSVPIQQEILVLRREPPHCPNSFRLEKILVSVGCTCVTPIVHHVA
# B1: aptamer No. 43 (mixed)
# mixed: GGGUAGCCGGAGGAGTCAGTAAUCGGTACCC
# modifications: g(M)g(M)g(M)u(M)Agc(M)c(M)Gg(M)agg(M)a(M)gTc(F)agTa(M)au(M)c(M)g(M)g(M)Ta(M)c(M)c(M)c(M)
# B2: aptamer No. 38 (mixed)
# mixed: B1 mixed
# modifications: g(M)g(M)g(M)u(M)Agc(M)c(M)Gg(M)Agg(M)a(M)gTc(F)agTa(M)au(M)c(M)g(M)g(M)Ta(M)c(M)c(M)c(M)
# B3: aptamer No. 39 (mixed)
# mixed: B1 mixed
# modifications: g(M)g(M)g(M)u(M)Agc(M)c(M)Gg(M)Agg(M)a(M)gTc(F)AgTaa(M)u(M)c(M)g(M)g(M)Ta(M)c(M)c(M)c(M)
# B4: aptamer No. 28 (mixed)
# mixed: B1 mixed
# modifications: g(M)g(M)g(M)u(M)Agc(M)c(M)Gg(M)Agg(M)a(M)gTc(F)agTaau(M)c(M)g(M)g(M)Ta(M)c(M)c(M)c(M)
# B5: aptamer No. 30 (mixed)
# mixed: B1 mixed
# modifications: g(M)g(M)g(M)u(M)Agc(M)c(M)Gg(M)Agg(M)a(M)gTc(F)agTa(M)Au(M)c(M)g(M)g(M)Ta(M)c(M)c(M)c(M)
# B6: aptamer No. 45 (mixed)
# mixed: B1 mixed with T27U
# modifications: g(M)g(M)g(M)u(M)Ag(S)c(M)c(M)Gg(M)agg(M)a(M)gTc(F)agTaau(M)c(M)g(M)g(M)u(F)a(M)CCC
# B7: aptamer No. 40 (mixed)
# mixed: B1 mixed
# modifications: g(M)g(M)g(M)u(M)Agc(M)c(M)Gg(M)Agg(M)a(M)gTc(F)AgTa(M)au(M)c(M)g(M)g(M)Ta(M)c(M)c(M)c(M)
# B8: aptamer No. 35 (mixed)
# mixed: B1 mixed
# modifications: g(M)g(M)g(M)u(M)Agc(M)c(M)Gg(M)Agg(M)a(M)gTc(F)AgTa(M)Au(M)c(M)g(M)g(M)Ta(M)c(M)c(M)c(M)
# B9: aptamer No. 49 (mixed)
# mixed: B1 mixed with T27U
# modifications: g(M)g(M)g(M)u(M)Agc(M)c(M)Gg(M)Agg(M)a(M)gTc(F)agTaau(M)c(M)g(M)g(M)u(F)a(M)CCC (one (M) misprinted as (PI))
# B10: aptamer No. 31 (mixed)
# mixed: B1 mixed
# modifications: g(M)g(M)g(M)u(M)Ag(S)c(M)c(M)Gg(M)Agg(M)a(M)gTc(F)agTaau(M)c(M)g(M)g(M)TAc(M)c(M)c(M)
# B11: aptamer No. 37 (mixed)
# mixed: B1 mixed
# modifications: g(M)g(M)g(M)u(M)Agc(M)c(M)Gg(M)Agg(M)a(M)gTc(F)agTaAu(M)c(M)g(M)g(M)Ta(M)c(M)c(M)c(M) (one (M) misprinted as (NI))
# B12: aptamer No. 41 (mixed)
# mixed: B1 mixed
# modifications: g(M)g(M)g(M)u(M)Agc(M)c(M)Gg(M)agg(M)a(M)gTc(F)agTaau(M)c(M)g(M)g(M)Ta(M)c(M)c(M)c(M)
# B13: aptamer No. 42 (mixed)
# mixed: B1 mixed
# modifications: g(M)g(M)g(M)u(M)Agc(M)c(M)Gg(M)agg(M)a(M)gTc(F)agTaAu(M)c(M)g(M)g(M)Ta(M)c(M)c(M)c(M)
# B14: aptamer No. 44 (mixed)
# mixed: B1 mixed
# modifications: g(M)g(M)g(M)u(M)Agc(M)c(M)Gg(M)agg(M)a(M)gTc(F)AgTa(M)au(M)c(M)g(M)g(M)Ta(M)c(M)c(M)c(M)
# B15: aptamer No. 27 (mixed)
# mixed: B1 mixed
# modifications: g(M)g(M)g(M)u(M)Ag(S)c(M)c(M)Gg(M)Agg(M)a(M)gTc(F)agTa(M)Au(M)c(M)g(M)g(M)Ta(M)c(M)c(M)c(M)
# B16: aptamer No. 46 (mixed)
# mixed: B1 mixed with T27U
# modifications: g(M)g(M)g(M)u(M)Ag(S)c(M)c(M)Gg(M)Agg(M)a(M)gTc(F)agTaau(M)c(M)g(M)g(M)u(F)a(M)CCC
# B17: aptamer No. 29 (mixed)
# mixed: B1 mixed
# modifications: g(M)g(M)g(M)u(M)Agc(M)c(M)Gg(M)Agg(M)a(M)gTc(F)agTa(M)a(M)u(M)c(M)g(M)g(M)Ta(M)c(M)c(M)c(M)
# B18: aptamer No. 47 (mixed)
# mixed: B1 mixed with T27U
# modifications: g(M)g(M)g(M)u(M)Agc(M)c(M)Gg(M)a(F)gg(M)a(M)gTc(F)a(F)gTaau(M)c(M)g(M)g(M)u(F)a(M)CCC
# Target: T1, IL-17 (IL-17A)
# Experiment: cell_activity; IL-6 release, NIH3T3
# Settings: chain copies: 2
# Protocol: First, human IL-17 and the aptamer produced in Example 1-1 were pre-incubated at 37° C. for 30 min, and added to NIH3T3 cell (ATCC, CRL1658) together with mouse TNFα (2 ng/mL). Then, after incubation for 24 hr, the culture supernatant was collected, and the amount of IL-6 was measured by BD Cytometric Bead Array (BD Biosciences). The IL-17 inhibitory action of each aptamer was determined from the amount of IL-6. For comparison with the aptamer of the present invention, a conventionally-known aptamer (aptamer No. 50) against IL-17 was used.
row,Binder,IC50 [nM]
1,"GGGUAGCCGGAGGAGTCAGTAAUCGGUACCC (mixed, g(M)g(M)g(M)u(M)Agc(M)c(M)Gg(M)agg(M)a(M)gTc(F)agTaau(M)c(M)g(M)g(M)u(F)a(M)CCC) [aptamer No. 48]",0.3
2,B1,0.49
3,B2,0.31
4,B3,3.91
5,B4,2.11
6,B5,1.49
7,B6,0.76
8,"GGGUAGCCGGAGGAGTCAGTAAUCGGTACCC (mixed, g(M)g(M)g(M)u(M)Agc(M)c(M)gg(M)Agg(M)a(M)gTc(F)agTa(M)Au(M)c(M)g(M)g(M)TACCC) [aptamer No. 33]",4.31
9,B7,3.75
10,B8,2.47
11,B9,0.65
12,B10,0.3
13,B11,1.64
14,B12,0.4
15,"GGGUAGCCGGAGGAGTCAGTAAUCGGTACCC (mixed, g(M)g(M)g(M)u(M)Agc(M)c(M)gg(M)Agg(M)a(M)gTc(F)agTa(M)a(M)u(M)c(M)g(M)g(M)TACCC) [aptamer No. 32]",4.62
16,B13,0.51
17,B14,1.83
18,B15,2.45
19,B16,1.13
20,B17,2.53
21,B18,0.59
